Measurements published in paper PMC8956665, “Structural and molecular rationale for the diversification of resistance mediated by the Antibiotic_NAT family” (Communications Biology, 2022).
Read-outs that look alike come from different tables or passages of the source.

Columns and labels:
AAC(3)-IVa [1] = biological target: AAC(3)-IVa
AAC(3)-IVa [2] = assay: crystal structure
meta-AAC0038 [3] = conditions: binary complex; catalytically inactive mutant
meta-AAC0038 [4] = conditions: ternary complex with CoA; 10 mM apramycin, 20% PEG 3350, 50 mM ADA pH 7; catalytically inactive mutant; active site cleft

Sequence of meta-AAC0038 (A0A059X981 entry or part of it H168A): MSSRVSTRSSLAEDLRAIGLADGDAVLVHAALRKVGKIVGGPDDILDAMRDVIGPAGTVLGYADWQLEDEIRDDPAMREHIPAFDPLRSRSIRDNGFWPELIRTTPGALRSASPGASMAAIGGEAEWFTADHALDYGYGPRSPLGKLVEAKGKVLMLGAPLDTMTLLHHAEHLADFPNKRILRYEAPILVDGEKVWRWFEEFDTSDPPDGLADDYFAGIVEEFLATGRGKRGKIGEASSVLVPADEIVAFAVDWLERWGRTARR

AAC(3)-IVa (enzyme)
stoichiometry N (AAC(3)-IVa [1]): 2
stoichiometry N (AAC(3)-IVa [2]): 2

CC(=O)SCCNC(=O)CCNC(=O)[C@H](O)C(C)(C)COP(=O)(O)OP(=O)(O)OC[C@H]1O[C@@H](n2cnc3c(N)ncnc32)[C@H](O)[C@@H]1OP(=O)(O)O [AcCoA, acetyl-CoA]
X-ray crystal structure (meta-AAC0038 [3]): the binary meta-AAC0038^H168A•acetyl-CoA complexes

CN[C@@H]1[C@@H](O[C@H]2O[C@H](CO)[C@@H](N)[C@H](O)[C@H]2O)O[C@H]2C[C@@H](N)[C@@H](O[C@H]3[C@H](O)[C@@H](O)[C@H](N)C[C@@H]3N)O[C@@H]2[C@@H]1O [APR, apramycin]
X-ray crystal structure, co-crystallization (meta-AAC0038 [4]): crystal structures of the ternary meta-AAC0038^H168A•apramycin•CoA
